Experiments:
AML12 cells = assay: Fluorescent-labeled rDj1 binding to plasma membrane of liver cells; type: cell-based, mouse; conditions: Alex 488-labeled rDj1 added to medium, fluorescent microscopy
Procedure: Myokines contribute to whole-body metabolism by directly signaling to distant organs (15-18). To determine which organs Dj1 targets, WT mice were tail-vein injected with a recombinant Dj1 (rDj1) protein labeled with the near-infrared fluorescent dye IRDye 800CW, and the fluorescent signals were tracked using an optical imaging system (FIGS. 3I, 3J). A robust fluorescent signal could be detected within 5 minutes post-injection. […] Considering that the reagents injected through tail-vein often nonspecifically target the liver, fluorescent-labeled rDj1 was used to determine whether Dj1 could bind to the plasma membrane of liver cells. rDj1 was labeled with Alex 488 and added into the medium of mouse liver cells (AML12 cells) at the indicated time.

AMPK = AMPK phosphorylation immunoblot in HepG2 cells; type: cell-based, human
Procedure: (§1) Mouse myoblast cells (C2C12) were maintained in high glucose DMEM/high, 10% fetal bovine serum with penicillin/streptomycin. pRK5-Dj1-HA plasmid was purchased from Addgene (#29396). Seeded cells were cultured in 6-well plates for 24 hours prior to transfection. Transfections were performed using Lipofectamine 2000 and PLUS reagent according to manufacturer instructions (Invitrogen, Carlsbad, CA). Human HepG2 cells were cultured in DMEM/low media containing 10% fetal bovine serum with penicillin/streptomycin. Mouse AML12 cells were maintained in DMEM/F12, ITS supplement (Gibco, USA), 40 ng/ml dexamethasone, and 10% fetal bovine serum with penicillin/streptomycin. For in vitro experiments, HepG2 cells were treated with or without recombinant human Dj1 protein (Novus, NBC1-18334) in serum-free media containing 25 mM glucose, 200 μM palmitic acid, and 0.25% bovine serum albumin for an indicated time.

ACC = ACC phosphorylation immunoblot in HepG2 cells; type: cell-based, human
Procedure: as §1

HFD-fed C57BL/6J mice = assay: rDj1 tail-vein injection daily for 5 days in HFD-fed mice; type: in vivo, mouse
Procedure: (§2) C57BL/10cSn-Dmd^mdx/J (001801, mdx) and C57BL/10ScSnJ (000476, WT) mice were ordered directly from The Jackson Laboratory. Different ages of mdx and WT mice were obtained. Animals were weaned 21 days after birth and had free access to food and water and were housed on 12 h light-dark cycle. C57BL/6J males were introduced to a normal diet (NC, Research Diets D15100601) or high-fat diet (HFD, Research Diets D12331), and maintained on a diet for the indicated time. The HFD diet derives 58% of its kilocalories (kcal) from fat (soybean and coconut oil), 25.5% from carbohydrates (sucrose and maltodextrin), and 16.4% from protein (casein). NASH model mice were fed for up to 28 weeks with the NASH diet (Envigo, TD.120528) and 42% fructose (Sigma, F0127) in the water (1,2). The NASH diet is composed of 405.36 g/Kg sucrose and 12.5 g/Kg cholesterol. Recombinant mouse Dj1 protein (Novus, NBP2-59523) or truncated mouse Dj1 (tDj1, GenScript) protein was intravenously injected every day for 5 days or every other day for 2 weeks. Skeletal muscle-specific Park7 knockout mice were generated by crossing Park7 flox mice with Myl1-cre mice (JAX, #024713). Mice were raised in microisolator cages with a 12 h: 12 h light: dark cycle. All procedures were performed in accordance with the Guide for Care and Use of Laboratory Animals of the National Institutes of Health, and were approved by the Animal Subjects Committee of the University of California, Los Angeles.
(§3) Cryosections (10-μm thick transverse sections of frozen muscle cut in a cryostat (Leica) at −20° C.) were subjected to hematoxylin & eosin (H&E) staining (10, 54). Liver tissues were fixed in phosphate-buffered 10% formalin and embedded in paraffin wax. Sections were cut and stained with H&E.
(§4) Plasma and liver NEFA, Cholesterol, and Triglyceride were analyzed by their respective kits (FUJIFILM Wako Diagnostics)
(§5) About 80 mg of liver samples were homogenized and sonicated in PBS (pH 7.4) for lipid extraction. An internal standard mixture (ISTD) and CHCl3:methanol (2:1) were added to the samples before being vortexed, mixed, sonicated, and centrifuged. The supernatant containing the lipid was removed and dried, the lipids were resuspended in ethanol and then sonicated.
AMPK signaling is vital for lipid metabolism in the liver (19). […] These findings indicate that Dj1 could enhance lipid metabolism and ameliorate HFD-induced hepatic steatosis. rDj1 was tail-vein injected into mice fed with a chow diet (NC) or high-fat diet (HFD) daily for 5 days. […] Although body weights and fasting blood glucose levels of HFD-fed mice were unchanged during the rDj1 administration, rDj1 indeed enhanced glucose homeostasis and insulin action, as evidenced by improving glucose tolerance tests and insulin tolerance tests, respectively (FIGS. 4K-4M, 4U-4Z).

HFD-fed mice [1] = assay: Indirect calorimetry in HFD-fed mice; type: in vivo, mouse
Procedure: Elevated AMPK signaling and reduced lipid content in the liver led to the hypothesis that rDj1 might activate the whole-body energy metabolism of mouse. Therefore, the metabolic rate was determined in HFD-fed mice by indirect calorimetry.

HFD-fed mice [2] = assay: rDj1 or tDj1 intravenous every other day for 14 days in HFD-fed mice; type: in vivo, mouse
Procedure: as §2, §3
Mouse serum Dj1 and CK were measured by mouse Park7/DJ-1 DuoSet ELISA (DY8136, R&D systems) and mouse CKMB/Creatine Kinase MB ELISA Kit (LS-F5745, LSBio) respectively. Mouse Serum AST and ALT were measured by AST activity assay kit (Sigma, MAK055) and ALT activity assay kit (Sigma, MAK052) respectively.
as §4, §5
Dj1 is a highly conserved protein that is ubiquitously expressed in most mammalian tissues. It belongs to the Dj1/ThiJ/PfpI family chaperones, and its expression is induced by oxidative stress (20,21). To determine whether the PfpI domain of Dj1 exerts a similar role as the full-length Dj1 protein (rDj1) in liver cells, truncated Dj1 (tDj1) comprising of only the PfpI domain was purified (FIG. 5O). HFD-fed mice were intravenous injected with rDj1 or tDj1 every other day for 14 days.

JNK = JNK phosphorylation immunoblot in liver of HFD-fed mice; type: in vivo, mouse
Description: As described above, Dj1 administration stimulates AMPK phosphorylation in the liver cells. However, elevated AMPK phosphorylation in vivo was not observed (data not shown). Numerous studies have reported that the c-Jun N terminal kinase (JNK) is critical to the development of steatosis and chronic liver injury in NAFLD (22-25). […] However, not all MAPK pathways were activated. For example, phosphorylation of p42 was not altered by tDj1 treatment (FIG. 6O). Both rDj1 and tDj1 suppressed TNFα and Anisomycin-induced JNK (p54 and p46) phosphorylation in human HepG2 and mouse AML12 liver cells, respectively (FIGS. 6C-6D).

B1: rDj1: full-length recombinant Dj1 protein; mouse protein (Novus, NBP2-59523) injected in mice, human protein used in HepG2 cells (protein, UniProt Q99LX0 1-189, looked up)
chain: MASKRALVILAKGAEEMETVIPVDVMRRAGIKVTVAGLAGKDPVQCSRDVMICPDTSLEDAKTQGPYDVVVLPGGNLGAQNLSESPMVKEILKEQESRKGLIAAICAGPTALLAHEVGFGCKVTTHPLAKDKMMNGSHYSYSESRVEKDGLILTSRGPGTSFEFALAIVEALVGKDMANQVKAPLVLKD
modifications: full-length
notes: full-length recombinant Dj1 protein; mouse protein (Novus, NBP2-59523) injected in mice, human protein used in HepG2 cells
- localization of labeled rDj1 on liver cells (AML12 cells): colocalized with the plasma membrane
- phosphorylation of AMPK (AMPK): elevated
- phosphorylation of ACC (ACC): elevated
- TGs levels in the liver (HFD-fed C57BL/6J mice; 0.15 mg/kg/day IV for 5 days): decreasing
- glucose tolerance tests (HFD-fed C57BL/6J mice; 0.15 mg/kg/day IV for 5 days): improving
- insulin tolerance tests (HFD-fed C57BL/6J mice; 0.15 mg/kg/day IV for 5 days): improving
- liver H&E staining, lipids (HFD-fed C57BL/6J mice; daily for 5 days): fewer lipids
- body weights (HFD-fed C57BL/6J mice; during rDj1 administration): unchanged
- fasting blood glucose levels (HFD-fed C57BL/6J mice; during rDj1 administration): unchanged
- energy expenditure (EE) (HFD-fed mice [1]): elevated
- oxygen consumption (VO2) (HFD-fed mice [1]): elevated
- respiratory exchange ratio (RER) (HFD-fed mice [1]): reducing
- level of TG in the liver (HFD-fed mice [2]): significantly reduced
- liver histology, lipid accumulation (HFD-fed mice [2]): less lipid accumulation
- plasma ALT levels (HFD-fed mice [2]): reducing
- plasma AST levels (HFD-fed mice [2]): reducing
- JNK (p46 subunit) phosphorylation (JNK): significantly reduced
